{"source": "paper PMC4597109", "about": "(Structure(London, England:1993), 2015)", "target": "the molecule itself", "test": "cryo-EM structure", "data": [{"protein": "Barley stripe mosaic virus coat protein, in wild-type virions (wtBSMV) (natural protein) MPNVSLTAKGGGHYIEDQWDTQVVEAGVFDDWWVHVEAWNKFLDNLRGINFSVASSRSQVAEYLAALDRDLPADVDRRFAGARGQIGSPNYLPAPKFFRLDKRTIAELTRLSRLTDQPHNNRDIELNRAKRATTNPSPPAQAPSENLTLRDVQPLKDSALHYQYVLIDLQSARLPVYTRKTFERELALEWIIPDAEEA", "values": [{"measurement": "binding result", "result": "binds"}]}]}
